These results are taken from FireProtDB (doi:10.1006/jmbi.1997.1365).

As a reminder, the Tm is the temperature at which the thermal transition is half complete.

B1: Lysozyme C, P61626 (parent)
chain: MKALIVLGLVLLSVTVQGKVFERCELARTLKRLGMDGYRGISLANWMCLAKWESGYNTRATNYNAGDRSTDYGIFQINSRYWCNDGKTPGAVNACHLSCSALLQDNIADAVACAKRVVRDPQGIRAWVAWRNRCQNRDVRQYVQGCGV

The variants in one data set derive from B1. Conditions: Homo sapiens; pH 2.67; Thermal; DSC; glycine 0.05 M; reversible: yes; structure 1LZ1; whole UniProt chain shown.
As for MKALIVLGLVLLSVTVQGKVFERCELARTLKRLGMDGYRGASLANWMCLAKWESGYNTRATNYNAGDRSTDYGIFQINSRYWCNDGKTPGAVNACHLSCSALLQDNIADAVACAKRVVRDPQGIRAWVAWRNRCQNRDVRQYVQGCGV [I41A], the Tm worked out at 56.2 °C, the “heat capacity change of unfolding” value turned out to be 1.51 kcal/mol/K, the “unfolding enthalpy (calorimetric)” value was 98.1 kcal/mol and the “unfolding enthalpy (van 't Hoff)” value stood at 103 kcal/mol.
On the same counts, the results for MKALIVLGLVLLSVTVQGKVFERCELARTLKRLGMDGYRGISLANWMCLAKWESGYNTRATNYNAGDRSTDYGAFQINSRYWCNDGKTPGAVNACHLSCSALLQDNIADAVACAKRVVRDPQGIRAWVAWRNRCQNRDVRQYVQGCGV [I74A] are 52.3 °C, 1.53 kcal/mol/K, 89 kcal/mol and 91.4 kcal/mol.

The same data set, now with this note: Homo sapiens; pH 2.7; 64.9 °C; Thermal; DSC; glycine 0.05 M; reversible: yes; structure 1LZ1; whole UniProt chain shown.
Consider MKALIVLGLVLLSVTVQGKVFERCELARTLKRLGMDGYRGASLANWMCLAKWESGYNTRATNYNAGDRSTDYGIFQINSRYWCNDGKTPGAVNACHLSCSALLQDNIADAVACAKRVVRDPQGIRAWVAWRNRCQNRDVRQYVQGCGV [I41A], for which the “ddG of mutation (higher = less stable)” value was 2.54 kcal/mol, the “heat capacity change of unfolding” value was determined as 1.2 kcal/mol/K, the “unfolding enthalpy (calorimetric)” value was 109 kcal/mol and the “unfolding enthalpy (van 't Hoff)” value was determined as 116 kcal/mol.
For MKALIVLGLVLLSVTVQGKVFERCELARTLKRLGMDGYRGISLANWMCLAKWESGYNTRATNYNAGDRSTDYGAFQINSRYWCNDGKTPGAVNACHLSCSALLQDNIADAVACAKRVVRDPQGIRAWVAWRNRCQNRDVRQYVQGCGV [I74A], the “ddG of mutation (higher = less stable)” value turned out to be 3.71 kcal/mol, the “heat capacity change of unfolding” value came out at 1.34 kcal/mol/K, the “unfolding enthalpy (calorimetric)” value is 105 kcal/mol and the “unfolding enthalpy (van 't Hoff)” value turned out to be 111 kcal/mol.
Consider MKALIVLGLVLLSVTVQGKVFERCELARTLKRLGMDGYRGISLANWMCLAKWESGYNTRATNYNAGDRSTDYGIFQINSRYWCNDGKTPGAVNACHLSCSALLQDNIADAVACAKRVVRDPQGARAWVAWRNRCQNRDVRQYVQGCGV [I124A], for which the “ddG of mutation (higher = less stable)” value was 0.93 kcal/mol, the “heat capacity change of unfolding” value worked out at 1.34 kcal/mol/K, the “unfolding enthalpy (calorimetric)” value was found to be 106 kcal/mol and the “unfolding enthalpy (van 't Hoff)” value was determined as 112 kcal/mol.

The data set is the same for the next values; noted with them: Homo sapiens; pH 2.7; Thermal; DSC; glycine 0.05 M; reversible: yes; structure 1LZ1; whole UniProt chain shown.
Consider MKALIVLGLVLLSVTVQGKVFERCELARTLKRLGMDGYRGASLANWMCLAKWESGYNTRATNYNAGDRSTDYGIFQINSRYWCNDGKTPGAVNACHLSCSALLQDNIADAVACAKRVVRDPQGIRAWVAWRNRCQNRDVRQYVQGCGV [I41A], for which the Tm came to 56.8 °C; the “change of melting temperature, mutant - wild type (higher = more stable)” value is -8.1 °C; the “heat capacity change of unfolding” value is 1.2 kcal/mol/K.
With MKALIVLGLVLLSVTVQGKVFERCELARTLKRLGMDGYRGISLANWMCLAKWESGYNTRATNYNAGDRSTDYGIFQINSRYWCNDGKTPGAVNACHLSCSALLQDNIADAVACAKRVVRDPQGARAWVAWRNRCQNRDVRQYVQGCGV [I124A], the Tm turned out to be 61.9 °C; the “change of melting temperature, mutant - wild type (higher = more stable)” value was -3 °C; the “heat capacity change of unfolding” value is 1.34 kcal/mol/K.

The data set is the same for the next values; noted with them: Homo sapiens; pH 2.96; Thermal; DSC; glycine 0.05 M; reversible: yes; structure 1LZ1; whole UniProt chain shown.
Turning to MKALIVLGLVLLSVTVQGKVFERCELARTLKRLGMDGYRGASLANWMCLAKWESGYNTRATNYNAGDRSTDYGIFQINSRYWCNDGKTPGAVNACHLSCSALLQDNIADAVACAKRVVRDPQGIRAWVAWRNRCQNRDVRQYVQGCGV [I41A], the Tm was found to be 62 °C, the “heat capacity change of unfolding” value is 1.08 kcal/mol/K, the “unfolding enthalpy (calorimetric)” value is 105 kcal/mol and the “unfolding enthalpy (van 't Hoff)” value is 111 kcal/mol.
For the variant MKALIVLGLVLLSVTVQGKVFERCELARTLKRLGMDGYRGISLANWMCLAKWESGYNTRATNYNAGDRSTDYGAFQINSRYWCNDGKTPGAVNACHLSCSALLQDNIADAVACAKRVVRDPQGIRAWVAWRNRCQNRDVRQYVQGCGV [I74A], the Tm is 58.5 °C, the “heat capacity change of unfolding” value came to 1.6 kcal/mol/K, the “unfolding enthalpy (calorimetric)” value amounted to 96.9 kcal/mol and the “unfolding enthalpy (van 't Hoff)” value came out at 102 kcal/mol.
As for MKALIVLGLVLLSVTVQGKVFERCELARTLKRLGMDGYRGISLANWMCLAKWESGYNTRATNYNAGDRSTDYGIFQINSRYWCNDGKTPGAVNACHLSCSALLQDNIADAVACAKRVVRDPQGARAWVAWRNRCQNRDVRQYVQGCGV [I124A], the Tm is 67.4 °C, the “heat capacity change of unfolding” value came out at 1.17 kcal/mol/K, the “unfolding enthalpy (calorimetric)” value was determined as 109 kcal/mol and the “unfolding enthalpy (van 't Hoff)” value is 114 kcal/mol.

Still in this data set, the particulars now being: Homo sapiens; pH 2.5; Thermal; DSC; glycine 0.05 M; reversible: yes; structure 1LZ1; whole UniProt chain shown.
On to MKALIVLGLVLLSVTVQGKVFERCELARTLKRLGMDGYRGISLANWMCLAKWESGYNTRATNYNAGDRSTDYGAFQINSRYWCNDGKTPGAVNACHLSCSALLQDNIADAVACAKRVVRDPQGIRAWVAWRNRCQNRDVRQYVQGCGV [I74A], for which the Tm turned out to be 48.2 °C, the “heat capacity change of unfolding” value came to 1.22 kcal/mol/K, the “unfolding enthalpy (calorimetric)” value came to 82.8 kcal/mol and the “unfolding enthalpy (van 't Hoff)” value amounted to 84 kcal/mol.

Still in this data set, the particulars now being: Homo sapiens; pH 2.81; Thermal; DSC; glycine 0.05 M; reversible: yes; structure 1LZ1; whole UniProt chain shown.
Turning to MKALIVLGLVLLSVTVQGKVFERCELARTLKRLGMDGYRGISLANWMCLAKWESGYNTRATNYNAGDRSTDYGAFQINSRYWCNDGKTPGAVNACHLSCSALLQDNIADAVACAKRVVRDPQGIRAWVAWRNRCQNRDVRQYVQGCGV [I74A], the Tm came out at 54.2 °C, the “heat capacity change of unfolding” value was 1.46 kcal/mol/K, the “unfolding enthalpy (calorimetric)” value turned out to be 90.7 kcal/mol and the “unfolding enthalpy (van 't Hoff)” value amounted to 92.1 kcal/mol.

The data set is the same for the next values; noted with them: Homo sapiens; pH 3.08; Thermal; DSC; glycine 0.05 M; reversible: yes; structure 1LZ1; whole UniProt chain shown.
As to MKALIVLGLVLLSVTVQGKVFERCELARTLKRLGMDGYRGISLANWMCLAKWESGYNTRATNYNAGDRSTDYGAFQINSRYWCNDGKTPGAVNACHLSCSALLQDNIADAVACAKRVVRDPQGIRAWVAWRNRCQNRDVRQYVQGCGV [I74A], the Tm was determined as 60.2 °C, the “heat capacity change of unfolding” value was determined as 1.44 kcal/mol/K, the “unfolding enthalpy (calorimetric)” value amounted to 98.8 kcal/mol and the “unfolding enthalpy (van 't Hoff)” value is 102 kcal/mol.

Still in this data set, the particulars now being: Homo sapiens; pH 2.73; Thermal; DSC; glycine 0.05 M; reversible: yes; structure 1LZ1; whole UniProt chain shown.
With MKALIVLGLVLLSVTVQGKVFERCELARTLKRLGMDGYRGISLANWMCLAKWESGYNTRATNYNAGDRSTDYGGFQINSRYWCNDGKTPGAVNACHLSCSALLQDNIADAVACAKRVVRDPQGIRAWVAWRNRCQNRDVRQYVQGCGV [I74G], the Tm is 62.7 °C.

The same data set, now with this note: Homo sapiens; pH 2.51; Thermal; DSC; glycine 0.05 M; reversible: yes; structure 1LZ1; whole UniProt chain shown.
With MKALIVLGLVLLSVTVQGKVFERCELARTLKRLGMDGYRGISLANWMCLAKWESGYNTRATNYNAGDRSTDYGIFQINSRYWCNDGKTPGAVNACHLSCSALLQDNIADAVACAKRVVRDPQGARAWVAWRNRCQNRDVRQYVQGCGV [I124A], the Tm is 57.7 °C, the “heat capacity change of unfolding” value was found to be 1.15 kcal/mol/K, the “unfolding enthalpy (calorimetric)” value was found to be 96.4 kcal/mol and the “unfolding enthalpy (van 't Hoff)” value worked out at 102 kcal/mol.

The data set is the same for the next values; noted with them: Homo sapiens; pH 2.8; Thermal; DSC; glycine 0.05 M; reversible: yes; structure 1LZ1; whole UniProt chain shown.
As to MKALIVLGLVLLSVTVQGKVFERCELARTLKRLGMDGYRGISLANWMCLAKWESGYNTRATNYNAGDRSTDYGIFQINSRYWCNDGKTPGAVNACHLSCSALLQDNIADAVACAKRVVRDPQGARAWVAWRNRCQNRDVRQYVQGCGV [I124A], the Tm is 64.1 °C, the “heat capacity change of unfolding” value worked out at 0.98 kcal/mol/K, the “unfolding enthalpy (calorimetric)” value was determined as 104 kcal/mol and the “unfolding enthalpy (van 't Hoff)” value is 111 kcal/mol.

Still in this data set, the particulars now being: Homo sapiens; pH 3.1; Thermal; DSC; glycine 0.05 M; reversible: yes; structure 1LZ1; whole UniProt chain shown.
For MKALIVLGLVLLSVTVQGKVFERCELARTLKRLGMDGYRGISLANWMCLAKWESGYNTRATNYNAGDRSTDYGIFQINSRYWCNDGKTPGAVNACHLSCSALLQDNIADAVACAKRVVRDPQGARAWVAWRNRCQNRDVRQYVQGCGV [I124A], the Tm was found to be 69.7 °C, the “heat capacity change of unfolding” value worked out at 1.58 kcal/mol/K, the “unfolding enthalpy (calorimetric)” value was found to be 112 kcal/mol and the “unfolding enthalpy (van 't Hoff)” value worked out at 119 kcal/mol.
